Measured values: the supplement of paper PMC11246515
± gives the standard deviation of the averaged measurements.

Assay: total protein half-life in vivo (active degradation + dilution); higher = more stable protein
[1] = E. coli NCM3722 delta-clpP delta-lon delta-hslV, growth: N-lim chemostat, doubling time 6 h
[2] = E. coli NCM3722 delta-lon, growth: N-lim chemostat, doubling time 6 h
[3] = E. coli NCM3722 delta-smpB, growth: N-lim chemostat, doubling time 6 h
[4] = wild type E. coli NCM3722, growth: C-lim chemostat, doubling time 3 h
[5] = wild type E. coli NCM3722, growth: N-lim chemostat, doubling time 6 h
[6] = E. coli NCM3722 delta-clpP, growth: N-lim chemostat, doubling time 6 h
[7] = E. coli NCM3722 delta-hslV, growth: N-lim chemostat, doubling time 6 h
[8] = wild type E. coli NCM3722, growth: C-lim chemostat, doubling time 6 h
[9] = wild type E. coli NCM3722, growth: C-lim chemostat, doubling time 12 h
[10] = wild type E. coli NCM3722, growth: N-lim chemostat, doubling time 12 h
[11] = wild type E. coli NCM3722, growth: P-lim chemostat, doubling time 6 h
[12] = wild type E. coli NCM3722, growth: P-lim chemostat, doubling time 12 h

MKNNPLISIYMPTWNRQQLAIRAIKSVLRQDYSNWEMIIVDDCSTSWEQLQQYVTALNDPRITYIHNDINSGACAVRNQAIMLAQGEYITGIDDDDEWTPNRLSVFLAHKQQLVTHAFLYANDYVCQGEVYSQPASLPLYPKSPYSRRLFYKRNIIGNQVFTWAWRFKECLFDTELKAAQDYDIFLRMVVEYGEPWKVEEATQILHINHGEMQITSSPKKFSGYFHFYRKHKDKFDRASKKYQLFTLYQIRNKRMTWRTLLTLLSVRNGKRLADGIRGR
total protein half-life in vivo [1]: 3.18 h | total protein half-life in vivo [2]: 2.71 ± 0.069 h | total protein half-life in vivo [3]: 1.7 ± 0.1 h

MKNNSQLLMPREKMLKFGISALTDVELLALFLRTGTRGKDVLTLAKEMLENFGSLYGLLTSEYEQFSGVHGIGVAKFAQLKGIAELARRYYNVRMREESPLLSPEMTREFLQSQLTGEEREIFMVIFLDSQHRVITHRRLFSGTLNHVEVHPREIIREAIKINASALILAHNHPSGCAEPSKADKLITERIIKSCQFMDLRVLDHIVIGRGEYVSFAERGWI
total protein half-life in vivo [4]: 3.03 h | total protein half-life in vivo [5]: 4.31 h

MKNRTLGSVFIVAGTTIGAGMLAMPLAAAGVGFSVTLILLIGLWALMCYTALLLLEVYQHVPADTGLGTLAKRYLGRYGQWLTGFSMMFLMYALTAAYISGAGELLASSISDWTGISMSATAGVLLFTFVAGGVVCVGTSLVDLFNRFLFSAKIIFLVVMLVLLLPHIHKVNLLTLPLQQGLALSAIPVIFTSFGFHGSVPSIVSYMDGNIRKLRWVFIIGSAIPLVAYIFWQVATLGSIDSTTFMGLLANHAGLNGLLQALREMVASPHVELAVHLFADLALATSFLGVALGLFDYLADLFQRSNTVGGRLQTGAITFLPPLAFALFYPRGFVMALGYAGVALAVLALIIPSLLTWQSRKHNPQAGYRVKGGRPALVVVFLCGIAVIGVQFLIAAGLLPEVG [P0AAD4]
total protein half-life in vivo [3]: 6.48 h

MKNTELEQLINEKLNSAAISDYAPNGLQVEGKETVQKIVTGVTASQALLDEAVRLGADAVIVHHGYFWKGESPVIRGMKRNRLKTLLANDINLYGWHLPLDAHPELGNNAQLAALLGITVMGEIEPLVPWGELTMPVPGLELASWIEARLGRKPLWCGDTGPEVVQRVAWCTGGGQSFIDSAARFGVDAFITGEVSEQTIHSAREQGLHFYAAGHHATERGGIRALSEWLNENTDLDVTFIDIPNPA [P0AFP6]
total protein half-life in vivo [1]: 4.31 ± 0.15 h | total protein half-life in vivo [6]: 3.736 ± 0.0077 h | total protein half-life in vivo [7]: 3.9 ± 0.38 h | total protein half-life in vivo [2]: 4.42 ± 0.65 h | total protein half-life in vivo [3]: 3.7 ± 0.28 h | total protein half-life in vivo [4]: 2.86 ± 0.27 h | total protein half-life in vivo [8]: 6.13 ± 0.52 h | total protein half-life in vivo [9]: 10.3 ± 0.29 h | total protein half-life in vivo [5]: 3.66 ± 0.23 h | total protein half-life in vivo [10]: 5.74 ± 0.75 h | total protein half-life in vivo [11]: 5.26 ± 0.41 h | total protein half-life in vivo [12]: 11.2 ± 1.2 h

MKNTKLLLAIATSAALLTGCQNTHGIDTNMAISSGLNAYKAATLSDADAKAIANQGCAEMDSGNQVASKSSKYGKRLAKIAKALGNNINGTPVNYKVYMTSDVNAWAMANGCVRVYSGLMDMMNDNEIEGVLGHELGHVALGHSLAEMKASYAIVAARDAISATSGVASQLSRSQLGDIAEGAINAKYSRDKESEADDFSFDLLKKRGISTQGLVGSFETLASLDGGRTQSMFDSHPPSTERAQHIRDRIASGK
total protein half-life in vivo [6]: 3.87 h | total protein half-life in vivo [7]: 4.19 h | total protein half-life in vivo [2]: 5.88 h

MKNVGFIGWRGMVGSVLMQRMVEERDFDAIRPVFFSTSQLGQAAPSFGGTTGTLQDAFDLEALKALDIIVTCQGGDYTNEIYPKLRESGWQGYWIDAASSLRMKDDAIIILDPVNQDVITDGLNNGIRTFVGGNCTVSLMLMSLGGLFANDLVDWVSVATYQAASGGGARHMRELLTQMGHLYGHVADELATPSSAILDIERKVTTLTRSGELPVDNFGVPLAGSLIPWIDKQLDNGQSREEWKGQAETNKILNTSSVIPVDGLCVRVGALRCHSQAFTIKLKKDVSIPTVEELLAAHNPWAKVVPNDREITMRELTPAAVTGTLTTPVGRLRKLNMGPEFLSAFTVGDQLLWGAAEPLRRMLRQLA [P0A9Q9]
total protein half-life in vivo [1]: 4.6 ± 1.1 h | total protein half-life in vivo [6]: 3.96 ± 0.59 h | total protein half-life in vivo [7]: 3.75 ± 0.11 h | total protein half-life in vivo [2]: 4.54 ± 0.57 h | total protein half-life in vivo [3]: 3.49 ± 0.27 h | total protein half-life in vivo [4]: 2.97 ± 0.19 h | total protein half-life in vivo [8]: 5.55 ± 0.092 h | total protein half-life in vivo [9]: 9.4 ± 0.89 h | total protein half-life in vivo [5]: 3.76 ± 0.22 h | total protein half-life in vivo [10]: 5.831 ± 0.054 h | total protein half-life in vivo [11]: 5.76 ± 0.3 h | total protein half-life in vivo [12]: 11 ± 1.3 h

MKNWKTSAESILTTGPVVPVIVVKKLEHAVPMAKALVAGGVRVLEVTLRTECAVDAIRAIAKEVPEAIVGAGTVLNPQQLAEVTEAGAQFAISPGLTEPLLKAATEGTIPLIPGISTVSELMLGMDYGLKEFKFFPAEANGGVKALQAIAGPFSQVRFCPTGGISPANYRDYLALKSVLCIGGSWLVPADALEAGDYDRITKLAREAVEGAKL [P0A955]
total protein half-life in vivo [1]: 4.94 ± 0.33 h | total protein half-life in vivo [6]: 4.33 ± 0.52 h | total protein half-life in vivo [7]: 4.66 ± 0.37 h | total protein half-life in vivo [2]: 4.92 ± 0.53 h | total protein half-life in vivo [3]: 4.3 ± 0.16 h | total protein half-life in vivo [4]: 2.99 ± 0.52 h | total protein half-life in vivo [8]: 6.17 ± 0.77 h | total protein half-life in vivo [9]: 9.18 ± 0.99 h | total protein half-life in vivo [5]: 4.63 ± 0.16 h | total protein half-life in vivo [10]: 7.2 ± 0.82 h | total protein half-life in vivo [11]: 5.39 ± 0.082 h | total protein half-life in vivo [12]: 12.2 ± 0.37 h

MKPARVPQTVVAPDCWGDLPWGKLYRKALERQLNPWFTKMYGFHLLKIGNLSAEINCEACAVSHQVNVSAQGMPVQVQADPLHLPFADKSVDVCLLAHTLPWCTDPHRLLREADRVLIDDGWLVISGFNPISFMGLRKLVPVLRKTSPYNSRMFTLMRQLDWLSLLNFEVLHASRFHVLPWNKHGGKLLNAHIPALGCLQLIVARKRTIPLTLNPMKQSKNKPRIRQAVGATRQCRKPQA
total protein half-life in vivo [1]: 5.49 ± 0.13 h | total protein half-life in vivo [7]: 5.49 ± 0.6 h | total protein half-life in vivo [2]: 5.76 ± 1 h | total protein half-life in vivo [3]: 7.25 ± 1 h | total protein half-life in vivo [4]: 1.91 ± 0.15 h | total protein half-life in vivo [8]: 4.59 ± 1.2 h | total protein half-life in vivo [9]: 11.5 h | total protein half-life in vivo [5]: 6.41 h | total protein half-life in vivo [10]: 9.9 ± 3.1 h | total protein half-life in vivo [11]: 5.31 ± 1.1 h | total protein half-life in vivo [12]: 10.6 ± 2.4 h

MKPDAHQVKQFLLNLQDTICQQLTAVDGAEFVEDSWQREAGGGGRSRVLRNGGVFEQAGVNFSHVHGEAMPASATAHRPELAGRSFEAMGVSLVVHPHNPYVPTSHANVRFFIAEKPGADPVWWFGGGFDLTPFYGFEEDAIHWHRTARDLCLPFGEDVYPRYKKWCDEYFYLKHRNEQRGIGGLFFDDLNTPDFDRCFAFMQAVGKGYTDAYLPIVERRKAMAYGERERNFQLYRRGRYVEFNLVWDRGTLFGLQTGGRTESILMSMPPLVRWEYDYQPKDGSPEAALSEFIKVRDWV
total protein half-life in vivo [1]: 5.53 ± 1.4 h | total protein half-life in vivo [6]: 4.55 ± 0.073 h | total protein half-life in vivo [7]: 5 ± 0.44 h | total protein half-life in vivo [2]: 5.01 ± 0.37 h | total protein half-life in vivo [3]: 4.05 ± 0.34 h | total protein half-life in vivo [8]: 5.24 ± 0.9 h | total protein half-life in vivo [9]: 10.1 ± 0.14 h | total protein half-life in vivo [5]: 4.29 ± 0.35 h | total protein half-life in vivo [10]: 7.38 ± 0.34 h | total protein half-life in vivo [11]: 6.06 ± 0.66 h | total protein half-life in vivo [12]: 11.7 ± 0.97 h
